# Reference: patent publication US5656591
# Target: commercial lactoferrin just as isolated from cow's milk (cow (bovine)) (UniProt P24627)
substance,measurement,value
commercial swine pepsin (from UniProt P00791) (enzyme),hydrolyzing rate,11.3%
